Data as given in US20170174776A1 (Hoffmann-La Roche, published 2017).

How the values were obtained:
[1] = target: T1, extracellular domain of the mouse transferrin receptor (mouse, UniProt Q62351 89-763); assay: ELISA, coated mouse TfR ECD, pH 5.5
T1 construct: extracellular domain; Bought, SinoBiological #50741-M07H; also called mouse TfR

[2] = target: T1, extracellular domain of the mouse …; assay: ELISA, coated mouse TfR ECD, pH 5.5 against pH 7.4
[3] = target: T1, extracellular domain of the mouse …; assay: ELISA, coated mouse TfR ECD, pH 7.4
[4] = target: T2, fusion protein of the human transferrin receptor extracellular domain linked to human IgG1 Fc (human, UniProt P02786 89-760); assay: ELISA, coated human TfR ECD-Fc, pH 5.5
T2 construct: extracellular domain; Bought, R&D Systems #2474-TR-050; also called human TfR; not shown: human IgG1 Fc
T2 sequence (P02786 89-760): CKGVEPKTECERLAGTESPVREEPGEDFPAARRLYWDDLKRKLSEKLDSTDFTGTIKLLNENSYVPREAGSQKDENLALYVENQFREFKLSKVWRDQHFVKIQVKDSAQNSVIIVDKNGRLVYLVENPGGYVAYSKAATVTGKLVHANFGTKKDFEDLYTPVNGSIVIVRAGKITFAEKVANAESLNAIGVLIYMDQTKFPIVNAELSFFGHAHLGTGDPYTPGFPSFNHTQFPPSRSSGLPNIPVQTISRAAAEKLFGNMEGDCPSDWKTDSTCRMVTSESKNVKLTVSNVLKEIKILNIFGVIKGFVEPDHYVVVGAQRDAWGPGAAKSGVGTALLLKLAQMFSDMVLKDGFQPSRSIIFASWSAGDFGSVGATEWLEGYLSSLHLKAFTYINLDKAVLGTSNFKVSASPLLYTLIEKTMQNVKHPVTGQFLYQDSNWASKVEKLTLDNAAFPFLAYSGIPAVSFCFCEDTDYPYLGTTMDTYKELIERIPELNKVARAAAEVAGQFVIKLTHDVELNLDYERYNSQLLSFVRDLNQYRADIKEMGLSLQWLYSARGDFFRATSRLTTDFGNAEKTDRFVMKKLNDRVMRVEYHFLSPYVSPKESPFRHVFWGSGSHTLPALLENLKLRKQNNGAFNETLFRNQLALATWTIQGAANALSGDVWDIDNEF
Experimental: (§1) A fusion protein of the human transferrin receptor extracellular domain linked to human IgG1 Fc (R&D Systems, Wiesbaden, Germany, #2474-TR-050) or the extracellular domain of the mouse transferrin receptor (SinoBiological, Beijing, China, #50741-M07H) or of the human insulin receptor (R&D Systems, Wiesbaden, Germany, #1544-IR/CF) were coated to a 96-well plate by incubating 50 μl of a solution of 1 μg/ml in PBS for 1 h at RT. […] After four further washes with PBS/0.1% (w/v) TWEEN 20, bound antibodies were detected using HRP-coupled secondary antibodies (Dianova, Hamburg, Germany, #109-036-097 or GE Healthcare, Freiburg, Germany, #NA9310V)(30 min., RT) and 50 μl of TMB (10 min., RT) substrate. Color development was stopped by addition of 50 μl of 1 N hydrochloric acid (HCl) and absorbance measured at 450 nm in a plate reader.

[5] = target: T2, fusion protein of the human transferrin …; assay: ELISA, coated human TfR ECD-Fc, pH 5.5 against pH 7.4
Experimental: as §1

[6] = target: T2, fusion protein of the human transferrin …; assay: ELISA, coated human TfR ECD-Fc, pH 7.4
Experimental: as §1

T1 sequence (Q62351 89-763): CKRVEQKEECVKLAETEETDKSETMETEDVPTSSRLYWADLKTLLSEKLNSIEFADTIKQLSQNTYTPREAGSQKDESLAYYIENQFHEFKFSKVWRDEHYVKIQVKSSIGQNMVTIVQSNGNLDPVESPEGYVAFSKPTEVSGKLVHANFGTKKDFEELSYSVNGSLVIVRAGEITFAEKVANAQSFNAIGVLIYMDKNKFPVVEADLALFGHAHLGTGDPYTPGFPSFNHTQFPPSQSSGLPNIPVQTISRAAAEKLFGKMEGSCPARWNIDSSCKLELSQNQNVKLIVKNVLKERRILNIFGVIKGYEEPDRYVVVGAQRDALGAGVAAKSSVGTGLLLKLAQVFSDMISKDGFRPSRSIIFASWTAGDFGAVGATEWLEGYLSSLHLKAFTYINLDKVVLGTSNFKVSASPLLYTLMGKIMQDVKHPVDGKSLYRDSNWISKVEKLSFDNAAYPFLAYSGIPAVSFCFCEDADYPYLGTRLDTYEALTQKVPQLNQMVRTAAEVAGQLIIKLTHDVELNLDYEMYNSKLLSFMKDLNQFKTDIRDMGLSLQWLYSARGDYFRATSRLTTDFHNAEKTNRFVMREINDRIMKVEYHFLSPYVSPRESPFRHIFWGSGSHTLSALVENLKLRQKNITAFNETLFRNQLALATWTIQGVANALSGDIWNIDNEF

Binder	EC50 [1] [µg/mL]	ratio EC50 pH 5.5/EC50 pH 7.4 [2]	EC50 [3] [µg/mL]	EC50 [4] [µg/mL]	ratio EC50 pH 5.5/EC50 pH 7.4 [5]	EC50 [6] [µg/mL]
mAb 8D3 (rat anti-mouse transferrin-receptor antibody 8D3 variable regions with human IgG1 heavy and light chain constant regions) (antibody, V domains shown) VH: EVQLVESGGGLVQPGNSLTLSCVASGFTFSNYGMHWIRQAPKKGLEWIAMIYYDSSKMNYADTVKGRFTISRDNSKNTLYLEMNSLRSEDTAMYYCAVPTSHYVVDVWGQGVSVTVSS VL: DIQMTQSPASLSASLEEIVTITCQASQDIGNWLAWYQQKPGKSPQLLIYGATSLADGVPSRFSGSRSGTQFSLKISRVQVEDIGIYYCLQAYNTPWTFGGGTKLELK	0.0549	1.1	0.0511			
mAb 128.1 (mouse anti-human transferrin-receptor antibody 128.1 variable regions with human IgG1 heavy and light chain constant regions) (antibody, V domains shown) VH: EVQLQQSGPELVKPGASMKISCKASGYSFTGYTMNWVKQSHGENLEWIGRINPHNGGTDYNQKFKDKAPLTVDKSSNTAYMELLSLTSEDSAVYYCARGYYYYSLDYWGQGTSVTVSS VL: QIVLTQSPAIMSASPGEKVTMTCSASSSIDYIHWYQQKSGTSPKRWIYDTSKLASGVPARFSGSGSGTSYSLTISSMEPEDAATYYCHQRNSYPWTFGGGTRLEIR				0.0098	1.3	0.0078
